Source: PMC2851401 (Journal of molecular biology, 2010)

What was measured:
[1] = target: Rev (Human immunodeficiency virus 1) (UniProt P04325); conditions: cited from earlier work
[2] = target: biotinylated HIV-1 Rev with C-terminal Avitag (HIV-1, UniProt P04616); assay: ELISA
Chain of biotinylated HIV-1 Rev with C-terminal Avitag (P04616 whole entry): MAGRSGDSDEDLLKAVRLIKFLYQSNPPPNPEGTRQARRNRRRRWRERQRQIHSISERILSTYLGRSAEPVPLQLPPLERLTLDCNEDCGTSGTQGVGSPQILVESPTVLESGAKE

In the case of Rev (from UniProt P04325), the Kd [1] is listed as 1000 nM.

B1: chimeric rabbit/human Fab SJS-R1 as the selected phage display clone in pC3C (Fab, V domains shown)
VH: QEQLVESGGRLVTPGTALTLTCKVSGFSLSGFWLNWVRQAPGKGLEWVGAIYRGSGSEWYASWAKGRFTISDTSTTVTLKLTSPTTEDTATYFCAADTTDNGYFTIWGPGTLVTVSS
VL: ELVMTQTPSSVSEPVGGTVTIKCQASQSISSWLSWYQQKPGQPPKLLIYDASNLASGVPSRFMGSGSGTEYTLTISGVQREDAATYYCLGGYPAASYRTAFGGGTELEII
B1: binds [2].
